The source of these data is article PMC12032919, “A blocking antibody against anti-Müllerian hormone restores ovulation and normal androgen levels in a spontaneous rat model of polycystic ovary syndrome” (eBioMedicine, 2025).

For test [1], the target named is T1, human AMH procomplex (completely cleaved AMH, non-covalent complex of the N-terminal and C-terminal homodimers) (human).
T1 sequence (P03971 25-560, looked up): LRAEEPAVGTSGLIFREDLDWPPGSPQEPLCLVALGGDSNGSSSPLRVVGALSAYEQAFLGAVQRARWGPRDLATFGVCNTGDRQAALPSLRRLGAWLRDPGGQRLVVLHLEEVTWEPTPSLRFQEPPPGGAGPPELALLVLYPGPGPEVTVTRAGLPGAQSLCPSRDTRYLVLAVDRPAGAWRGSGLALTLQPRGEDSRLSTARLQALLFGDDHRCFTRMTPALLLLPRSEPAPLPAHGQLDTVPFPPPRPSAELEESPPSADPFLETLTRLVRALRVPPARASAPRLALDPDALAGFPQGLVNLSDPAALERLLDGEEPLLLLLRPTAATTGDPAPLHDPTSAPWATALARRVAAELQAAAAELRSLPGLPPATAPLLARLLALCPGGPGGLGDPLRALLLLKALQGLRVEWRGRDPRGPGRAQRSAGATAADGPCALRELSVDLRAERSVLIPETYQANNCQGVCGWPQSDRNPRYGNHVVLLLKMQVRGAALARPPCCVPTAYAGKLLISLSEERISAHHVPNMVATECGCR
Nature of the test: ELISA; AMH captured on Mab10.6 coated on plates, incubated with various concentrations of AMHR2-Fc; bound AMHR2-Fc detected with anti-human Fc antibody conjugated to HRP; n = 3. (In general: In an ELISA, binding on a coated surface is turned into a signal by an enzyme label.)

In test [2] the target is T2, bovine AMH procomplex present in serum (Bos taurus, UniProt P03972).
T2 construct: anti-Müllerian hormone, bovine, N-terminal pro-domain of the procomplex; anti-Müllerian hormone, bovine, C-terminal mature domain of the procomplex; source: endogenous, serum of one bovine sample
Nature of the test: ELISA; AMH of bovine, ovine or mouse serum held on plate-captured AMHR2-Fc; detected with biotinylated Mab22A2 (0.5 ug/mL) and streptavidin-HRP; pair: Mab22A2 with serum AMH. The following applies: one partner purified.

The target of test [3] is T3, mouse AMH procomplex present in serum (Mus musculus, strain , UniProt P27106).
T3 construct: anti-Müllerian hormone, mouse, N-terminal pro-domain of the procomplex; anti-Müllerian hormone, mouse, C-terminal mature domain of the procomplex; source: endogenous, serum of one mouse sample
The test is described as above. Particulars: one partner purified.

The target in test [4] is T4, ovine AMH procomplex present in serum (Ovis aries, UniProt T1SHH2).
T4 construct: anti-Müllerian hormone, ovine, N-terminal pro-domain of the procomplex; anti-Müllerian hormone, ovine, C-terminal mature domain of the procomplex; source: endogenous, serum of one ovine sample
Described as above. The following applies: one partner purified.

T3 sequence (P27106 whole entry, looked up, the tested form may be a part, one chain of several): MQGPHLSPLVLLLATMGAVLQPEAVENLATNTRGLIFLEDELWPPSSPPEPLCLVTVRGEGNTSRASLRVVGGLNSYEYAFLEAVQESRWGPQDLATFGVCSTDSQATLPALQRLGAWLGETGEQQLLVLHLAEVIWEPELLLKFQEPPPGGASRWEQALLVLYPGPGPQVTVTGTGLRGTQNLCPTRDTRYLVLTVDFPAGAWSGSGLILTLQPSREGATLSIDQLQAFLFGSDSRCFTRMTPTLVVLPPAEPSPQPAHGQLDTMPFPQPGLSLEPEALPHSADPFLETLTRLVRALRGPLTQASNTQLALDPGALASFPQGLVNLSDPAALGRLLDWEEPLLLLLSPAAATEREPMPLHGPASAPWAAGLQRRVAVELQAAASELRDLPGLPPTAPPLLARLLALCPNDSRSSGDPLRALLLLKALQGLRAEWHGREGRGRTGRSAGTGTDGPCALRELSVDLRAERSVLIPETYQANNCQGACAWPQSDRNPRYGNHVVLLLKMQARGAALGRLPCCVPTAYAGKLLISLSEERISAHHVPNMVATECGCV

B1: soluble fusion protein containing the extracellular domain of human AMHR2 and the Fc part of human IgG1 (AMHR2-Fc) (Fc fusion)
chain: PPNRRTCVFFEAPGVRGSTKTLGELLDTGTELPRAIRCLYSRCCFGIWNLTQDRAQVEMQGCRDSDEPGCESLHCDPSPRAHPSPGSTLFTCSCGTDFCNANYSHLPPPGSPGTPGSQGPQAAPGESIWMAL
In turn, B1 came in with a mean AUC of the ELISA curve in test [1] of 75900.

B2: Mab22A2, monoclonal antibody against human AMH (antibody, V domains shown)
VH: QIRLVQSGPELKKPGETVKISCKASGYSFTNYLMHWVKQAPGEALKWMGWINTNIGQPTYAEDFKGRFVFSLEASISTAFLHINSLKDEDTATYFCTSGYFGYDWYFDVWGVGTTVTVSS
VL: DIQMTQSPDSLSASVGETVTITCRASENIQNYLAWYQHKQGKSPQLLVYNAQTLANGVSSRFSGSGSGTHYSLNIHSLQPEDFGTYYCQHFWGTPRTFGGGTKLIIK
notes: the text calls the antibody IgG1a; Mouse IgG1 kappa; also called biotinylated Mab22A2; source: mouse monoclonal, previously prepared by immunisation of female BALB/c mice with human AMH precursor; hybridoma cells
B2: the binding result in test [2], in test [3] and in test [4] was “binds” throughout.
